From patent publication US20240336672A1

Tests used:
Conditions in all cases: remark: other sources report otherwise
[1] = target: SARS-CoV-2 RBD (B.1.1.7) domain (SARS-CoV-2); assay: ELISA
[2] = target: SARS-CoV-2 RBD (B.1.351) domain (SARS-CoV-2); assay: ELISA
[3] = target: SARS-CoV-2 RBD (P.1) domain (SARS-CoV-2); assay: ELISA
[4] = target: T1, SARS-CoV-2 Spike ectodomain (tri-S), Wuhan (SARS-CoV-2), P0DTC2; assay: ELISA
[5] = target: SARS-CoV-2 RBD (B.1.1.7) domain (SARS-CoV-2); assay: ELISA; set-up: unit not given beside the values
[6] = target: SARS-CoV-2 RBD (B.1.351) domain (SARS-CoV-2); assay: ELISA; set-up: unit not given beside the values
[7] = target: SARS-CoV-2 RBD (P.1) domain (SARS-CoV-2); assay: ELISA; set-up: unit not given beside the values
[8] = target: SARS-CoV-2 RBD (B.1.1.7) domain (SARS-CoV-2); assay: ELISA; set-up: unit not given beside the values; remark: listed apart in the source
[9] = target: SARS-CoV-2 RBD (B.1.351) domain (SARS-CoV-2); assay: ELISA; set-up: unit not given beside the values; remark: listed apart in the source
[10] = target: SARS-CoV-2 RBD (P.1) domain (SARS-CoV-2); assay: ELISA; set-up: unit not given beside the values; remark: listed apart in the source
[11] = target: T1, SARS-CoV-2 Spike ectodomain (tri-S), …; assay: ELISA; set-up: unit not given beside the values
[12] = target: T1, SARS-CoV-2 Spike ectodomain (tri-S), …; assay: tri-S capture ELISA
[13] = target: T1, SARS-CoV-2 Spike ectodomain (tri-S), …; assay: ELISA, coated antigen
[14] = target: T1, SARS-CoV-2 Spike ectodomain (tri-S), …; assay: tri-S/ACE2 blocking ELISA
[15] = target: SARS-CoV-2 RBD (B.1.1.7) domain (SARS-CoV-2); assay: RBD-ACE2 competition ELISA; set-up: unit not given beside the values
[16] = target: SARS-CoV-2 RBD (B.1.351) domain (SARS-CoV-2); assay: RBD-ACE2 competition ELISA; set-up: unit not given beside the values
[17] = target: SARS-CoV-2 RBD (P.1) domain (SARS-CoV-2); assay: RBD-ACE2 competition ELISA; set-up: unit not given beside the values
[18] = target: SARS-CoV-2 RBD (B.1.1.7) domain (SARS-CoV-2); assay: RBD-ACE2 competition ELISA; set-up: unit not given beside the values; remark: listed apart in the source
[19] = target: SARS-CoV-2 RBD (B.1.351) domain (SARS-CoV-2); assay: RBD-ACE2 competition ELISA; set-up: unit not given beside the values; remark: listed apart in the source
[20] = target: SARS-CoV-2 RBD (P.1) domain (SARS-CoV-2); assay: RBD-ACE2 competition ELISA; set-up: unit not given beside the values; remark: listed apart in the source
[21] = target: T1, SARS-CoV-2 Spike ectodomain (tri-S), …; assay: competition ELISA vs bio-Cv2.1169
[22] = target: T1, SARS-CoV-2 Spike ectodomain (tri-S), …; assay: competition ELISA vs bio-Cv2.3235
[23] = target: T1, SARS-CoV-2 Spike ectodomain (tri-S), …; assay: competition ELISA vs bio-Cv2.5213
[24] = target: T1, SARS-CoV-2 Spike ectodomain (tri-S), …; assay: SPR (Biacore), IgG immobilized, viral protein as analyte
[25] = target: T1, SARS-CoV-2 Spike ectodomain (tri-S), …; assay: competition ELISA, spike protein binding to ACE2 ectodomain
[26] = target: SARS-CoV-2 RBD (B.1.1.7) domain (SARS-CoV-2); assay: competition ELISA, biotinylated RBD to immobilized ACE2 ectodomain
[27] = target: SARS-CoV-2 RBD (B.1.351) domain (SARS-CoV-2); assay: as above
[28] = target: SARS-CoV-2 RBD (P.1) domain (SARS-CoV-2); assay: as above
[29] = target: T1, SARS-CoV-2 Spike ectodomain (tri-S), …; assay: biotinylated tri-S on immobilised ACE2, competition ELISA

B1: Cv2.3194 (recombinant human IgG1) (antibody)
heavy: EVQLVESGGGLIQPGGSLRLSCAASGITVTSNYMSWVRQAPGKGLEWVSVIYPGGSTFYADSVKGRFTISRDNSKNTLYLQMNSLRAEDTAVYYCARDLVVYGMDVWGQGTTVTVSSASTKGPSVFPLAPSSKSTSGGTAALGCLVKDYFPEPVTVSWNSGALTSGVHTFPAVLQSSGLYSLSSVVTVPSSSLGTQTYICNVNHKPSNTKVDKKVEPKSCDKTHTCPPCPAPELLGGPSVFLFPPKPKDTLMISRTPEVTCVVVDVSHEDPEVKFNWYVDGVEVHNAKTKPREEQYNSTYRVVSVLTVLHQDWLNGKEYKCKVSNKALPAPIEKTISKAKQPREPQVYTLPPSRDELTKNQVSLTCLVKGFYPSDIAVEWESNGQPENNYKTTPPVLDSDGSFFLYSKLTVDKSRWQQGNVFSCSVMHEALHNHYTQKSLSLSPGK
light: EIVLTQSPGTLSLSPGERATLSCRASQSVSSSYLAWYQQKPGQAPRLLIYGASSRATGIPGRFSGSGSGTDFTLTISRLEPEDFAIYYCQQGVTFGGGTKVEIKRTVAAPSVFIFPPSDEQLKSGTASVVCLLNNFYPREAKVQWKVDNALQSGNSQESVTEQDSKDSTYSLSSTLTLSKADYEKHKVYACEVTHQGLSSPVTKSFNRGEC
With B1 the OD405nm [1] was 3.4, the OD405nm [2] was 3.5 and the OD405nm [3] was 3.4. For the same binder, the OD405nm [4] was 3.5, the AUC (RBD bind.) [5] was 13 and the AUC [6] was 12. It also gave an AUC (RBD bind.) [6] of 12, an AUC (RBD bind.) [7] of 13 and an AUC [8] of 3. For the same binder, the AUC [9] was 4, the AUC [10] was 3 and the AUC [11] was 3. The triS Capt-ELISA [12] was 2.3, the ELISA OD [13] was 3.6 OD and the triS ELISA (AUC) [13] was 15.8 AUC. The % binding inhibition [14] was 97%, the AUC (RBD block.) [15] was 294 and the AUC (RBD block.) [16] was 335. The AUC (RBD block.) [17] was 279, the AUC (RBD block.) [18] was 147 and the AUC (RBD block.) [19] was 168. It also gave an AUC (RBD block.) [20] of 139, a % inhibition (competition) [21] of 81 and a % inhibition (competition) [22] of 97. It also gave a % inhibition (competition) [23] of 84, a Kd [24] of 0.459 nM and a koff [24] of 0.00112 s⁻¹. The kon [24] was 2.45e+06 M⁻¹ s⁻¹, the ACE2 Block (%) [25] was 91% and the IC50 [26] was 0.212 µg/mL. The IC90 [26] was 0.737 µg/mL, the IC50 [27] was 0.206 µg/mL and the IC90 [27] was 0.406 µg/mL. It also gave an IC50 [28] of 0.412 µg/mL, an IC90 [28] of 0.591 µg/mL and an EC50 [29] of 0.31 µg/mL.
